Test results published in US20230256057A1.

Target: IL-7 receptor (human) (UniProt P16871)
Assay: cell-based or functional assay

UniProt P16871, sequence (P16871 21-459, chain 1 of 2): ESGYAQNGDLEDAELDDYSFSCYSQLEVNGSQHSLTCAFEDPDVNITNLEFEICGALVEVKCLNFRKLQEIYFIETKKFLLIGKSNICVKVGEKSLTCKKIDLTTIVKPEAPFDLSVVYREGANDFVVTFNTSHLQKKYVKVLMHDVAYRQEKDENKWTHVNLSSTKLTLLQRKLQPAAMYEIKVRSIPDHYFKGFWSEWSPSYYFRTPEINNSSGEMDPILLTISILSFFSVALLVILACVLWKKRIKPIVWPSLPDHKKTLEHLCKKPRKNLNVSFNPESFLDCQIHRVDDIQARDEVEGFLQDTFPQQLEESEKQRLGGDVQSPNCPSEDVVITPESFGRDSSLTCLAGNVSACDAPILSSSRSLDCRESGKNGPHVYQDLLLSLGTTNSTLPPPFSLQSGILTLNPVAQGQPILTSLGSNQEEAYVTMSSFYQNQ
UniProt P16871, sequence (P31785 23-369, chain 2 of 2, further chain): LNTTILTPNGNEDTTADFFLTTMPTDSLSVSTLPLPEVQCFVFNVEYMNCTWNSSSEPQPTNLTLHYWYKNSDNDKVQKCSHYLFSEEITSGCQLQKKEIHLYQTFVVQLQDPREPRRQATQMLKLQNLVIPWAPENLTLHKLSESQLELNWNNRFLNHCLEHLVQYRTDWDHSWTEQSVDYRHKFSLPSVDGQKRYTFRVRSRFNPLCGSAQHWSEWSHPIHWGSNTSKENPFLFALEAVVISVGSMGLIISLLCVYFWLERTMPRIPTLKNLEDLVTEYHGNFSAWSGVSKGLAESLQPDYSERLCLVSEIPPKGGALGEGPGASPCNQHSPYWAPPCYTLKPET

Q: Which results are given for “human interleukin-7 fused to human Fc sequence of IgG2 (hIL-7-Fc) (Fc fusion)”?
A: pSTAT5 expression in CD3+ T cells of COVID19+ patients' whole blood, ratio to unstimulated condition; supernatant dilution 1/2.5: 6.5 fold; pSTAT5 expression in CD3+ T cells of COVID19+ patients' whole blood, ratio to unstimulated condition; supernatant dilution 1/5: 5.7 fold; pSTAT5 expression in CD3+ T cells of COVID19+ patients' whole blood, ratio to unstimulated condition; supernatant dilution 1/10: 4.9 fold
